Test results published in US20060294608A1.

Biological target: CHO derived N' FLAG-mNR6 (N-terminal FLAG-tagged murine NR6) (mouse) (UniProt Q9JM58)
Assay: Biosensor (BiaCore) with M2 immobilised, after passage over M2 affinity resin

Chain of UniProt Q9JM58 (Q9JM58 other isoform, or with tags, fused parts or gaps limits assumed): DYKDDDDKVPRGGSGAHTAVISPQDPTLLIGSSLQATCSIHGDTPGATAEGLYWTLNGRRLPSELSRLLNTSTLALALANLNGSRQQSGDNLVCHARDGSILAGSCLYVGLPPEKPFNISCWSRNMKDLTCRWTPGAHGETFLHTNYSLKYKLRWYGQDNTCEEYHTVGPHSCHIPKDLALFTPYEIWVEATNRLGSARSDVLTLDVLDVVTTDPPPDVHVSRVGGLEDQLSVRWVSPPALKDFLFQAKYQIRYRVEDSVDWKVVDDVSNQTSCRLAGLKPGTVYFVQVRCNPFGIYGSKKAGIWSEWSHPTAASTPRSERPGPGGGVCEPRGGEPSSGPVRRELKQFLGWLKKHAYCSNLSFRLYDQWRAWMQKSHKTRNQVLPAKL

M2 binding remaining in the unbound fraction: 20%
Substance: anti FLAG peptide M2 antibody (Kodak Eastman, USA)
